{"source": "patent US20220143148A1", "about": "“COMPOSITIONS AND METHODS FOR MODULATING CGRP SIGNALING TO REGULATE INTESTINAL INNATE LYMPHOID CELLS” (The Broad Institute, Inc., priority 2019, published 2022)", "system": "small intestinal immune cells", "experiment": "Droplet-based scRNA-seq of small intestinal immune cells (LP and PP), OVA vs PBS, clustering and differential expression", "type": "in vivo, mouse", "conditions": "cluster ID 6, PP", "excerpt": "To comprehensively characterize small intestinal immune cells, Applicants generated scRNA-Seq profiles for 58,067 immune cells collected from lamina propria (LP) and Peyer's patch (PP) regions at steady state and after induction of a type 2 inflammatory reaction to ovalbumin (OVA) (Brandt et al., 2003) (FIGS. 1A and 8A). To ensure sufficient representation of rare cells, Applicants combined a normalization strategy—removing by flow sorting either a portion of IgD+ naïve B cells, which are the most abundant cell type in PPs, or all CD19+ and CD3+ T cells (FIG. 8B, Methods)—with profiling of a sufficiently large number of cells number (P>0.99 to recover at least 15 cells from each cluster, Methods) by massively parallel scRNA-seq (Haber et al., 2017) (Methods). Applicants obtained 36,797 and 21,270 high quality cells passing initial filtering (Methods) from PP and LP regions, respectively.\nOverall, Applicants annotated 27 cell subsets across the two compartments, spanning T cells, B cells, ILCs, dendritic cells (DCs), myeloid cells and stromal cells, in frequencies ranging from 0.07% to 14%. Briefly, Applicants first partitioned the cells from the PP regions by unsupervised clustering (Methods) into 46 clusters, retained the 97% of cells that were robustly assigned cell identities in each cluster (Methods), assigned the cells from the LP regions to the 46 clusters using a classifier (Methods), and visualized the data with scvis (Ding et al., 2018), a deep generative model-based method (FIGS. 1B and 8C, Methods). Next, Applicants identified genes that were differentially expressed between the cells in each cluster and the remaining cells (Table 1, Methods), as well as between pairs of clusters (Table 2), to elucidate identities of similar cell types/states. Applicants excluded from downstream analysis clusters mostly consisting of contaminants from epithelium, likely doublets, or cells with a small number of Unique Molecular Identifiers (UMIs) (FIGS. 1C and 8D), or lacking distinct markers (Methods). Altogether, Applicants retained 27 clusters spanning 85% of the cells and each associated with distinct marker genes (FIG. 8E, Methods).\nTo induce allergic reaction to OVA, 6 to 7 weeks old mice were sensitized twice, two weeks apart, with 50 μg of OVA plus 1 mg of aluminum potassium sulfate adjuvant via intraperitoneal injection. Two weeks later, mice were orally administered with 50 mg of OVA on every other day for a total of five times. 1 μg of α-CGRP peptide was administered simultaneously when indicated. Mice were deprived of food for 3-4 hours in cages with wood chip bedding for limiting antigen degradation in the stomach before each intragastric challenge.\nIsolation of cells from Peyer's patches (PPs). Peyer's patches (PPs) were carefully dissected from the small intestine under a stereo microscope using a fine scissor, pierced once with a fine forcep. Tissues were digested in freshly made digestion buffer (RPMI-1640 containing 100 μg/ml Liberase™ and 50 μg/ml DNase I at 37° C. on a roto-mixer. After 15 min, tissues were very gently mixed using a 1 ml pipette. The supernatant was collected and added to ice-cold MACS buffer (pH 7.4; PBS plus 2% FCS and 2 mM EDTA). Pre-warmed (37° C.) fresh digestion buffer was added to the remaining tissues. After rotation at 37° C. for 15 min, the mixture was vigorously mixed using a 1 ml pipette for 1 min. Supernatants from the two steps were combined and passed through 70 μm filters and stained for FACS (below).\nIsolation of cells from the lamina propria (LP). The small intestines were opened longitudinally and washed in ice-cold PBS. For scRNA-seq, roughly 0.5 cm of fragments from each of the distal, middle and proximal regions without visible PPs were collected. Epithelial cells were dissociated by tissue rotation in pre-warmed (37° C.) PBS containing 10 mM EDTA at 37° C. for 15 min, followed by additional incubation on ice for 15 min. Tissues were then shaken vigorously. […]"}
{"molecule": "OVA (protein, UniProt P01012 2-386, looked up) Ovalbumin: GSIGAASMEFCFDVFKELKVHHANENIFYCPIAIMSALAMVYLGAKDSTRTQINKVVRFDKLPGFGDSIEAQCGTSVNVHSSLRDILNQITKPNDVYSFSLASRLYAEERYPILPEYLQCVKELYRGGLEPINFQTAADQARELINSWVESQTNGIIRNVLQPSSVDSQTAMVLVNAIVFKGLWEKAFKDEDTQAMPFRVTEQESKPVQMMYQIGLFRVASMASEKMKILELPFASGTMSMLVLLPDEVSGLEQLESIINFEKLTEWTSSNVMEERKIKVYLPRMKMEEKYNLTSVLMAMGITDVFSSSANLSGISSAESLKISQAVHAAHAEINEAGREVVGSAEAGVDAASVSEEFRADHPFLFCIKHIATNAVLFFGRCVSP", "values": [{"measurement": "Mcpt1: percentage of expressing cells in OVA-treated group", "result": 0.35}, {"measurement": "Mcpt2: percentage of expressing cells in OVA-treated group", "result": 0.212}, {"measurement": "Mir142hg: percentage of expressing cells in OVA-treated group", "result": 0.169}, {"measurement": "Mpeg1: percentage of expressing cells in OVA-treated group", "result": 0.992}, {"measurement": "Napsa: percentage of expressing cells in OVA-treated group", "result": 0.888}, {"measurement": "Neat1: percentage of expressing cells in OVA-treated group", "result": 0.885}, {"measurement": "Nfkbia: percentage of expressing cells in OVA-treated group", "result": 0.661}, {"measurement": "Nfkbiz: percentage of expressing cells in OVA-treated group", "result": 0.336}, {"measurement": "Npc2: percentage of expressing cells in OVA-treated group", "result": 0.985}, {"measurement": "Nr4a1: percentage of expressing cells in OVA-treated group", "result": 0.508}, {"measurement": "Nr4a3: percentage of expressing cells in OVA-treated group", "result": 0.134}, {"measurement": "Odc1: percentage of expressing cells in OVA-treated group", "result": 0.366}, {"measurement": "Os9: percentage of expressing cells in OVA-treated group", "result": 0.441}, {"measurement": "Pik3ip1: percentage of expressing cells in OVA-treated group", "result": 0.423}, {"measurement": "Pim1: percentage of expressing cells in OVA-treated group", "result": 0.509}, {"measurement": "Plek: percentage of expressing cells in OVA-treated group", "result": 0.617}, {"measurement": "Plekho2: percentage of expressing cells in OVA-treated group", "result": 0.201}, {"measurement": "Pltp: percentage of expressing cells in OVA-treated group", "result": 0.878}, {"measurement": "Pnrc1: percentage of expressing cells in OVA-treated group", "result": 0.706}, {"measurement": "Ppia: percentage of expressing cells in OVA-treated group", "result": 0.998}, {"measurement": "Ppp1r16b: percentage of expressing cells in OVA-treated group", "result": 0.237}, {"measurement": "Ppp2ca: percentage of expressing cells in OVA-treated group", "result": 0.539}, {"measurement": "Psap: percentage of expressing cells in OVA-treated group", "result": 0.997}, {"measurement": "Ptp4a1: percentage of expressing cells in OVA-treated group", "result": 0.4}, {"measurement": "Ptpre: percentage of expressing cells in OVA-treated group", "result": 0.392}, {"measurement": "Rel: percentage of expressing cells in OVA-treated group", "result": 0.381}, {"measurement": "Rgs1: percentage of expressing cells in OVA-treated group", "result": 0.466}, {"measurement": "Rilpl2: percentage of expressing cells in OVA-treated group", "result": 0.851}, {"measurement": "Rnase6: percentage of expressing cells in OVA-treated group", "result": 0.991}, {"measurement": "Rnf19b: percentage of expressing cells in OVA-treated group", "result": 0.255}, {"measurement": "Rpn2: percentage of expressing cells in OVA-treated group", "result": 0.664}, {"measurement": "Runx3: percentage of expressing cells in OVA-treated group", "result": 0.53}, {"measurement": "S1pr4: percentage of expressing cells in OVA-treated group", "result": 0.351}, {"measurement": "Sell: percentage of expressing cells in OVA-treated group", "result": 0.983}, {"measurement": "Selplg: percentage of expressing cells in OVA-treated group", "result": 0.992}, {"measurement": "Sf3b1: percentage of expressing cells in OVA-treated group", "result": 0.706}, {"measurement": "Siah2: percentage of expressing cells in OVA-treated group", "result": 0.253}, {"measurement": "Skil: percentage of expressing cells in OVA-treated group", "result": 0.435}, {"measurement": "Sla2: percentage of expressing cells in OVA-treated group", "result": 0.735}, {"measurement": "Smc6: percentage of expressing cells in OVA-treated group", "result": 0.849}, {"measurement": "Socs3: percentage of expressing cells in OVA-treated group", "result": 0.55}, {"measurement": "Spsb2: percentage of expressing cells in OVA-treated group", "result": 0.187}, {"measurement": "Tgif1: percentage of expressing cells in OVA-treated group", "result": 0.115}, {"measurement": "Tnfaip8l2: percentage of expressing cells in OVA-treated group", "result": 0.512}, {"measurement": "Traf4: percentage of expressing cells in OVA-treated group", "result": 0.535}, {"measurement": "Trim25: percentage of expressing cells in OVA-treated group", "result": 0.339}, {"measurement": "VgIl4: percentage of expressing cells in OVA-treated group", "result": 0.34}, {"measurement": "Vps37b: percentage of expressing cells in OVA-treated group", "result": 0.424}, {"measurement": "Wnk1: percentage of expressing cells in OVA-treated group", "result": 0.605}, {"measurement": "Zc3h12a: percentage of expressing cells in OVA-treated group", "result": 0.135}, {"measurement": "Zfand5: percentage of expressing cells in OVA-treated group", "result": 0.423}, {"measurement": "Zfp36l2: percentage of expressing cells in OVA-treated group", "result": 0.783}, {"measurement": "AY036118: LN (average fold change)", "setting": "OVA vs PBS", "result": "−0.256"}, {"measurement": "Atf3: LN (average fold change)", "setting": "OVA vs PBS", "result": "−0.693"}, {"measurement": "Atp5h: LN (average fold change)", "setting": "OVA vs PBS", "result": 0.168}, {"measurement": "B3gnt8: LN (average fold change)", "setting": "OVA vs PBS", "result": 0.265}, {"measurement": "Bcl2l11: LN (average fold change)", "setting": "OVA vs PBS", "result": "−0.499"}, {"measurement": "Bhlhe40: LN (average fold change)", "setting": "OVA vs PBS", "result": "−0.297"}, {"measurement": "Bloc1s2: LN (average fold change)", "setting": "OVA vs PBS", "result": 0.218}, {"measurement": "Btg2: LN (average fold change)", "setting": "OVA vs PBS", "result": "−0.156"}, {"measurement": "Ccl4: LN (average fold change)", "setting": "OVA vs PBS", "result": 0.241}, {"measurement": "Cd68: LN (average fold change)", "setting": "OVA vs PBS", "result": 0.204}, {"measurement": "Cd83: LN (average fold change)", "setting": "OVA vs PBS", "result": "−0.472"}, {"measurement": "Cdv3: LN (average fold change)", "setting": "OVA vs PBS", "result": "−0.219"}, {"measurement": "Clcn3: LN (average fold change)", "setting": "OVA vs PBS", "result": "−0.239"}, {"measurement": "Clec10a: LN (average fold change)", "setting": "OVA vs PBS", "result": 0.327}, {"measurement": "Clec2d: LN (average fold change)", "setting": "OVA vs PBS", "result": 0.409}, {"measurement": "Coq10b: LN (average fold change)", "setting": "OVA vs PBS", "result": "−0.336"}, {"measurement": "Crem: LN (average fold change)", "setting": "OVA vs PBS", "result": "−0.279"}, {"measurement": "Cxcr3: LN (average fold change)", "setting": "OVA vs PBS", "result": 0.302}, {"measurement": "Cxcr4: LN (average fold change)", "setting": "OVA vs PBS", "result": 0.491}, {"measurement": "D13Ertd608e: LN (average fold change)", "setting": "OVA vs PBS", "result": 0.276}, {"measurement": "Ddit4: LN (average fold change)", "setting": "OVA vs PBS", "result": 1.322}, {"measurement": "Ddx3x: LN (average fold change)", "setting": "OVA vs PBS", "result": "−0.202"}, {"measurement": "Defa24: LN (average fold change)", "setting": "OVA vs PBS", "result": "−1.145"}]}
